Data as given in PMC12416549 (2024).

T1: TNFR1 (Homo sapiens, UniProt P19438)
T1 chain: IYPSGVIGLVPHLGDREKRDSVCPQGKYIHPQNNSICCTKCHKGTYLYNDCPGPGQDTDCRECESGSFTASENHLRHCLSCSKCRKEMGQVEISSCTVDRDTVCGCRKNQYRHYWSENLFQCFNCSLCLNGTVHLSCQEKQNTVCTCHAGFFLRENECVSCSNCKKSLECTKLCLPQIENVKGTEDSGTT


Biological target: T1, TNFR1
Test: yeast display SC50

Row | apparent Kd (screen) | Binder
1 | 4.39 nM | Y22P (designed binder) MTLQELLREEALRRAEAEAFRPALELLAEKFPEQKEYLLDLAEEIESQIRSLSGVDVEDVRKFLDKEWAWVKELLAEHPAELAEVEAARAARLAELRAEVEAKVAA
2 | 1.69 nM | L74A (designed binder) MTLQELLREEALRRAEAEAFRYALELLAEKFPEQKEYLLDLAEEIESQIRSLSGVDVEDVRKFLDKEWAWVKEALAEHPAELAEVEAARAARLAELRAEVEAKVAA
3 | 1.16 nM | E77C (designed binder) MTLQELLREEALRRAEAEAFRYALELLAEKFPEQKEYLLDLAEEIESQIRSLSGVDVEDVRKFLDKEWAWVKELLACHPAELAEVEAARAARLAELRAEVEAKVAA
4 | 0.189 nM | L39F (designed binder) MTLQELLREEALRRAEAEAFRYALELLAEKFPEQKEYLFDLAEEIESQIRSLSGVDVEDVRKFLDKEWAWVKELLAEHPAELAEVEAARAARLAELRAEVEAKVAA
5 | 0.405 nM | L52W (designed binder) MTLQELLREEALRRAEAEAFRYALELLAEKFPEQKEYLLDLAEEIESQIRSWSGVDVEDVRKFLDKEWAWVKELLAEHPAELAEVEAARAARLAELRAEVEAKVAA
6 | 22.2 nM | F20K (designed binder) MTLQELLREEALRRAEAEAKRYALELLAEKFPEQKEYLLDLAEEIESQIRSLSGVDVEDVRKFLDKEWAWVKELLAEHPAELAEVEAARAARLAELRAEVEAKVAA
7 | 0.718 nM | K30Q (designed binder) MTLQELLREEALRRAEAEAFRYALELLAEQFPEQKEYLLDLAEEIESQIRSLSGVDVEDVRKFLDKEWAWVKELLAEHPAELAEVEAARAARLAELRAEVEAKVAA
8 | 0.49 nM | R97V (designed binder) MTLQELLREEALRRAEAEAFRYALELLAEKFPEQKEYLLDLAEEIESQIRSLSGVDVEDVRKFLDKEWAWVKELLAEHPAELAEVEAARAARLAELVAEVEAKVAA
9 | 0.539 nM | E18Y (designed binder) MTLQELLREEALRRAEAYAFRYALELLAEKFPEQKEYLLDLAEEIESQIRSLSGVDVEDVRKFLDKEWAWVKELLAEHPAELAEVEAARAARLAELRAEVEAKVAA
10 | 20.2 nM | E44G (designed binder) MTLQELLREEALRRAEAEAFRYALELLAEKFPEQKEYLLDLAEGIESQIRSLSGVDVEDVRKFLDKEWAWVKELLAEHPAELAEVEAARAARLAELRAEVEAKVAA
11 | 6.43 nM | L74G (designed binder) MTLQELLREEALRRAEAEAFRYALELLAEKFPEQKEYLLDLAEEIESQIRSLSGVDVEDVRKFLDKEWAWVKEGLAEHPAELAEVEAARAARLAELRAEVEAKVAA
12 | 2.48 nM | R89D (designed binder) MTLQELLREEALRRAEAEAFRYALELLAEKFPEQKEYLLDLAEEIESQIRSLSGVDVEDVRKFLDKEWAWVKELLAEHPAELAEVEAADAARLAELRAEVEAKVAA
13 | 0.79 nM | D65W (designed binder) MTLQELLREEALRRAEAEAFRYALELLAEKFPEQKEYLLDLAEEIESQIRSLSGVDVEDVRKFLWKEWAWVKELLAEHPAELAEVEAARAARLAELRAEVEAKVAA
14 | 2.73 nM | D56L (designed binder) MTLQELLREEALRRAEAEAFRYALELLAEKFPEQKEYLLDLAEEIESQIRSLSGVLVEDVRKFLDKEWAWVKELLAEHPAELAEVEAARAARLAELRAEVEAKVAA
15 | 18.3 nM | D40F (designed binder) MTLQELLREEALRRAEAEAFRYALELLAEKFPEQKEYLLFLAEEIESQIRSLSGVDVEDVRKFLDKEWAWVKELLAEHPAELAEVEAARAARLAELRAEVEAKVAA
16 | 5.31 nM | Y37G (designed binder) MTLQELLREEALRRAEAEAFRYALELLAEKFPEQKEGLLDLAEEIESQIRSLSGVDVEDVRKFLDKEWAWVKELLAEHPAELAEVEAARAARLAELRAEVEAKVAA
17 | 0.79 nM | W68I (designed binder) MTLQELLREEALRRAEAEAFRYALELLAEKFPEQKEYLLDLAEEIESQIRSLSGVDVEDVRKFLDKEIAWVKELLAEHPAELAEVEAARAARLAELRAEVEAKVAA
18 | 0.79 nM | E43A (designed binder) MTLQELLREEALRRAEAEAFRYALELLAEKFPEQKEYLLDLAAEIESQIRSLSGVDVEDVRKFLDKEWAWVKELLAEHPAELAEVEAARAARLAELRAEVEAKVAA

Row | apparent Kd (screen) | Binder
19 | 0.539 nM | A102W (designed binder) MTLQELLREEALRRAEAEAFRYALELLAEKFPEQKEYLLDLAEEIESQIRSLSGVDVEDVRKFLDKEWAWVKELLAEHPAELAEVEAARAARLAELRAEVEWKVAA
20 | 0.653 nM | G54V (designed binder) MTLQELLREEALRRAEAEAFRYALELLAEKFPEQKEYLLDLAEEIESQIRSLSVVDVEDVRKFLDKEWAWVKELLAEHPAELAEVEAARAARLAELRAEVEAKVAA
21 | 0.593 nM | R61M (designed binder) MTLQELLREEALRRAEAEAFRYALELLAEKFPEQKEYLLDLAEEIESQIRSLSGVDVEDVMKFLDKEWAWVKELLAEHPAELAEVEAARAARLAELRAEVEAKVAA
22 | 2.48 nM | L41Q (designed binder) MTLQELLREEALRRAEAEAFRYALELLAEKFPEQKEYLLDQAEEIESQIRSLSGVDVEDVRKFLDKEWAWVKELLAEHPAELAEVEAARAARLAELRAEVEAKVAA
23 | 0.539 nM | A23K (designed binder) MTLQELLREEALRRAEAEAFRYKLELLAEKFPEQKEYLLDLAEEIESQIRSLSGVDVEDVRKFLDKEWAWVKELLAEHPAELAEVEAARAARLAELRAEVEAKVAA
24 | 5.31 nM | Q34D (designed binder) MTLQELLREEALRRAEAEAFRYALELLAEKFPEDKEYLLDLAEEIESQIRSLSGVDVEDVRKFLDKEWAWVKELLAEHPAELAEVEAARAARLAELRAEVEAKVAA
25 | 3.63 nM | I45F (designed binder) MTLQELLREEALRRAEAEAFRYALELLAEKFPEQKEYLLDLAEEFESQIRSLSGVDVEDVRKFLDKEWAWVKELLAEHPAELAEVEAARAARLAELRAEVEAKVAA
26 | 0.593 nM | R8D (designed binder) MTLQELLDEEALRRAEAEAFRYALELLAEKFPEQKEYLLDLAEEIESQIRSLSGVDVEDVRKFLDKEWAWVKELLAEHPAELAEVEAARAARLAELRAEVEAKVAA
27 | 0.869 nM | S51A (designed binder) MTLQELLREEALRRAEAEAFRYALELLAEKFPEQKEYLLDLAEEIESQIRALSGVDVEDVRKFLDKEWAWVKELLAEHPAELAEVEAARAARLAELRAEVEAKVAA
28 | 0.869 nM | L96I (designed binder) MTLQELLREEALRRAEAEAFRYALELLAEKFPEQKEYLLDLAEEIESQIRSLSGVDVEDVRKFLDKEWAWVKELLAEHPAELAEVEAARAARLAEIRAEVEAKVAA
29 | 1.54 nM | Q48T (designed binder) MTLQELLREEALRRAEAEAFRYALELLAEKFPEQKEYLLDLAEEIESTIRSLSGVDVEDVRKFLDKEWAWVKELLAEHPAELAEVEAARAARLAELRAEVEAKVAA
30 | 0.718 nM | A105V (designed binder) MTLQELLREEALRRAEAEAFRYALELLAEKFPEQKEYLLDLAEEIESQIRSLSGVDVEDVRKFLDKEWAWVKELLAEHPAELAEVEAARAARLAELRAEVEAKVVA
31 | 0.49 nM | E5H (designed binder) MTLQHLLREEALRRAEAEAFRYALELLAEKFPEQKEYLLDLAEEIESQIRSLSGVDVEDVRKFLDKEWAWVKELLAEHPAELAEVEAARAARLAELRAEVEAKVAA
32 | 0.718 nM | A102M (designed binder) MTLQELLREEALRRAEAEAFRYALELLAEKFPEQKEYLLDLAEEIESQIRSLSGVDVEDVRKFLDKEWAWVKELLAEHPAELAEVEAARAARLAELRAEVEMKVAA
33 | 0.593 nM | H78G (designed binder) MTLQELLREEALRRAEAEAFRYALELLAEKFPEQKEYLLDLAEEIESQIRSLSGVDVEDVRKFLDKEWAWVKELLAEGPAELAEVEAARAARLAELRAEVEAKVAA
34 | 0.539 nM | L3I (designed binder) MTIQELLREEALRRAEAEAFRYALELLAEKFPEQKEYLLDLAEEIESQIRSLSGVDVEDVRKFLDKEWAWVKELLAEHPAELAEVEAARAARLAELRAEVEAKVAA
35 | 0.593 nM | A98F (designed binder) MTLQELLREEALRRAEAEAFRYALELLAEKFPEQKEYLLDLAEEIESQIRSLSGVDVEDVRKFLDKEWAWVKELLAEHPAELAEVEAARAARLAELRFEVEAKVAA
